B1: S. pombe Pol I subunit A135 (natural protein, UniProt Q9P7X8 1-1174, looked up)
chain: MSFQTLERERTFKNPPKDGTSFPDLQKAVKPHVDSFNALTNAGLLNYAVKEIGEKCAFDSITQEEGGALKFGNKISFRVDEVQIAKPMLSSRERSSINRKVYPAEARERLTTYKSRLVLKFSWSVNGGPRQSEMREVGMIPIMVRSNRCHLEGLSPAELIAHKEESEEMGGYFIVNGIEKLIRMLILPKRNHPTAIIRPSFANRGTSYSQYGLSIRCVRPDQSSLTNTLHYLNNGVTMFRFHWRKNEYLIPSMMILKALLETSDKEIFEGIVGKDLGNTFLTDRVELMLRAYKSYGLYSQTETLQYLGSKFRVVLGVAEDLTDVEVGRFLLQKVVLVHLREAKDKFRLLLFMIRKLYALVAGECCADNPDSPQHQEILLGGFLYGQILKEKIEDWLNSIRAQINLDVRRSAPGVDFSDRKYLTRVFSKINNDIGTKLQYFLSTGNLVSNTGLDLQQATGYTVVAEKLNFYRFLSHFRMVHRGAFFAELKTTTVRKLLPEAWGFMCPVHTPDGSPCGLLNHLARKCEIVTHPSDVSQIPSLLLSLGVDPPSVVGHESGWGCVQLDGKIVGWCTYKLAKHVADVLRLMKIEYAVKLRNGTATEPAKVPLDLEIGYVPPSHNGQYPGLYLFSNPARMVRPVKHISTGELDMLGPFEQVYMDIACFPKEIVPKVSTHVEYSPTNVLSIVANMTPFSDFNQSPRNMYQCQMGKQTMGTPGTALRYRTDNKLYRLQTGQTPVVRPKLHNTYGLDHYPNGTNAVVAVISYTGYDMEDAMILNKSAHERGFGYGTVYKGESFDLSQKRRRGEPVVHHFGFAPGSTPRREWLQKLDADGLPFIGIKLEDGDPIVAYYDESTGQNFIETYHGTEPGFVDEVRLLGNDVGDSECQQIHVKLRITRSPIIGDKFSSRHGQKGICSQKWPTVDMPFTESGMQPDIIINPHAFPSRMTIGMFIESLAGKAGACHGLAQDSTPFIYSEQQTAADYFGEQLVKAGYNYHGNEPMYSGITGQEMKADIYIGVVYYQRLRHMVSDKFQVRTTGPIHNLTRQPVKGRKRAGGIRFGEMERDAVIGHGTSFLMQDRLMNCSDYAQSWVCRDCGSIISIMSTISMNGVGSASEVRCRSCAKPALGLEDTSDIWQDGSGKKFVGGTNTTLIALPSVFNYLTAELTAMNIKMMLEVK
notes: RNA polymerase I subunit A135, S. pombe; source: endogenous, S. pombe, purified as part of Pol I (Ni-NTA, MonoQ, MonoS)

Legend:
[1] = target: T1, S. pombe Pol I subunit A190 (Schizosaccharomyces pombe (endogenous …, UniProt P15398 1-1689)); experiment: cryo-EM structure; dimer particles in the 'monomer' dataset of BS3-crosslinked Sp Pol I after SEC (5 mM HEPES pH 7.8, 1 mM MgCl2, 10 µM ZnCl2, 150 mM KCl, 5 mM DTT); C2 symmetry imposed; 4.5 Å; model by placing two monomers and rigid body fitting of subdomains; details: both partners purified
T1 construct: RNA polymerase I subunit A190, S. pombe; source: endogenous, S. pombe, purified as part of Pol I (Ni-NTA, MonoQ, MonoS)
T1 sequence (P15398 whole entry): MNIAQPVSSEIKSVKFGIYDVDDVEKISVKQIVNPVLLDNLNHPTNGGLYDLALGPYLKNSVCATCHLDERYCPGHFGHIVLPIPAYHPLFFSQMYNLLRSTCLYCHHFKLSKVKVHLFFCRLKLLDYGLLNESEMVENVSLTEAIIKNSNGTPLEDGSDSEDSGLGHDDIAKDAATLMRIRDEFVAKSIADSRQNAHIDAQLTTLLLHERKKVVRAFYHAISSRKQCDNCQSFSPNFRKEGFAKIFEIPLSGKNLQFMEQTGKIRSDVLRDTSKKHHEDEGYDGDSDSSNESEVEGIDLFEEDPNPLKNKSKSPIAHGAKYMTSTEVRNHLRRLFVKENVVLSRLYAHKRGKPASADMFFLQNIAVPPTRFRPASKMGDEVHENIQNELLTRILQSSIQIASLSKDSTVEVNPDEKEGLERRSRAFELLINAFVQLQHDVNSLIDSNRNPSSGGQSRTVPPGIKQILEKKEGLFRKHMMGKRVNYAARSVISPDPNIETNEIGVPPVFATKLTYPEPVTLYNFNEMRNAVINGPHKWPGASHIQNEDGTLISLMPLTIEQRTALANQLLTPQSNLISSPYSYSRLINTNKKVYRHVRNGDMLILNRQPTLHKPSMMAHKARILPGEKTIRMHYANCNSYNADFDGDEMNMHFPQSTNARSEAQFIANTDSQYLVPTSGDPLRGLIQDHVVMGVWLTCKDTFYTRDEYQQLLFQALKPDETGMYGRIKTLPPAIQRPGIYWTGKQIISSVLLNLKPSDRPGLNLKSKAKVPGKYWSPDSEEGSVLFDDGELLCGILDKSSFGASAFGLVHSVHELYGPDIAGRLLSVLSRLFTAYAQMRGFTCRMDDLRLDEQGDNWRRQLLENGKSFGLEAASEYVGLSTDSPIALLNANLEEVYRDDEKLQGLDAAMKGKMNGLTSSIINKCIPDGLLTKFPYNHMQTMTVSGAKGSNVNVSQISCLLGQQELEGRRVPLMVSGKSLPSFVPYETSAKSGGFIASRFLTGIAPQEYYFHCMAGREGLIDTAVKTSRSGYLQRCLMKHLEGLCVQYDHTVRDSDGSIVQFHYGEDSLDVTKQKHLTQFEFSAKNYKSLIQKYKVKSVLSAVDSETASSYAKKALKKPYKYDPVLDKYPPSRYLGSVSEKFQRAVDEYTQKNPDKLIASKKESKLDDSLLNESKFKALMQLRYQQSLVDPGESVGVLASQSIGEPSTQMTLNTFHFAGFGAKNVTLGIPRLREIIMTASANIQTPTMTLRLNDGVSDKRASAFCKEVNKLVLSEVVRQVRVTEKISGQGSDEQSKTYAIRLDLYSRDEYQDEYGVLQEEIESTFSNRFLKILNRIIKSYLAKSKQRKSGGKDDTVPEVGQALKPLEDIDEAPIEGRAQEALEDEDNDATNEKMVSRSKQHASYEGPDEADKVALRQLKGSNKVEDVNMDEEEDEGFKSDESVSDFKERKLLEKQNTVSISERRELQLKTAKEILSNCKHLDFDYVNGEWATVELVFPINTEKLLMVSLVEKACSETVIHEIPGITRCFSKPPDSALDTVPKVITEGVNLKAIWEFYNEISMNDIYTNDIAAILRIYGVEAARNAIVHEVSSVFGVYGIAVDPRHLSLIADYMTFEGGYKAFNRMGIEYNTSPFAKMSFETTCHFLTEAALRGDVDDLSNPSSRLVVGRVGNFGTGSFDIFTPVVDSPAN

[2] = target: B1; experiment: as above; details: both partners purified

| binding result [1] | binding result [2] | Binder |
| --- | --- | --- |
| binds |  | S. pombe common RNA polymerase subunit Rpb12 (natural protein, UniProt P48011 1-63, looked up, general (common) RNA polymerase subunit Rpb12, S. pombe; source: endogenous, S. pombe, purified as part of Pol I (Ni-NTA, MonoQ, MonoS)) MNHPTSTGGTAFNPPRPATMIYLCADCGARNTIQAKEVIRCRECGHRVMYKMRTKRMVQFEAR |
|  | binds | S. pombe Pol I subunit A43 (natural protein, UniProt O43036 1-173, looked up, RNA polymerase I stalk subunit A43, S. pombe; Lacks the connector domain of the S. cerevisiae protein; also called stalk subunit A43; source: endogenous, S. pombe, purified as part of Pol I (Ni-NTA, MonoQ, MonoS)) MPDLSLYKQTVDLYLSIAPGHSRDPLNAIQEHMDSMILSKLPRINGIVLAYDNIRFLEKSAKVMYDSPFSFIWVRVDVLVFSPKKGDCLEGKINLVSPSHIGLLILGIFNASIPRKSIPKDWIFIEPDTTEEQGRWKTNDGNILEPGKDLEFVVDGIQREAGLTMVQGTLANS |
| binds |  | S. pombe Pol I subunit AC40 with C-terminal flag-his tag (natural protein, UniProt O94616 1-348, looked up, RNA polymerase I and III subunit AC40, S. pombe; source: endogenous, genomically tagged S. pombe strain, purified as part of Pol I (Ni-NTA, MonoQ, MonoS); not shown: 10xHis, C-terminal, kept) MAAVDRSRTEISVLSDRVTDVGSVDFPGYYFDEDNIWDLDKFKKNLKVSITSLDQETMVFEISGIDASIANAFRRILIAEIPTLAFEFVYIINNTSIIQDEVLSHRIGLVPISADPDMFKWFQHPLPGQEATHTDYDTVVFSLNKKCEFNKNAATDEKDPKRLYVNSEVYSGDLIWKPQGRQEERFADNPIRVVNPDIVVAKLRPGQEIDLEAHAILGIGQDHAKFSPVATASYRLLPTIHILSPIEGEDAVKFQKCFPKGVIELEEGPDGKKQARVADVRKDTVSRECLRHPEFADKVQLGRVRDHYLFSVESTGIMKPDVLFIKSIAVLKSKCLAVKSSLQNISSD |
| binds |  | B1 |
